The text below walks through data of US20220220215A1 (CRESCENDO BIOLOGICS, published 2022).

First the molecules themselves.
B1: TPP-985: CD137D -6GS-HSA2-2-6GS-PDA2-His (bispecific antibody)
chain: EVQLVESGGGVVQPGGSLRLSCAASGFTFSNYGMHWVRQAPGKGLEWVAVISNDGNTKTYADSVKGRFTISRDNSKNTLYLQMNSLRAEDTAVYYCAQDETTTVTASYYFDYWGQGTLVTVSSGGGGSGGGGSGGGGSGGGGSGGGGSGGGGSEVQLVESGGGLVKPGGSLRLSCAASGFTFSNYNMNWVRQAPGKGLEWVSSISSAGTHIYYADSVKGRFTISRDNAKNSLYLQMNSLRAEDTAVYYCARDPHSTGWYKDFDYWGQGTLVTVSSGGGGSGGGGSGGGGSGGGGSGGGGSGGGGSEVQLVESGGGVVRPGGSLRLSCAASGFTFDDYAMSWVRQAPGKGLEWVSGITWNAGSTGYADSVKGRFTISRDNAKNSLYLQMNSLRAEDTALYYCVRDKYSYAWSYDDFDIWGQGTMVTVSSAAAHHHHHH
notes: Single-chain VH fusion (CD137 VH, HSA VH, PD-1 VH), His tag
B2: TPP-984: CD137D -6GS-HSA2-6GS-PDA-His (bispecific antibody)
chain: EVQLVESGGGVVQPGGSLRLSCAASGFTFSNYGMHWVRQAPGKGLEWVAVISNDGNTKTYADSVKGRFTISRDNSKNTLYLQMNSLRAEDTAVYYCAQDETTTVTASYYFDYWGQGTLVTVSSGGGGSGGGGSGGGGSGGGGSGGGGSGGGGSEVQLVESGGGLVKPGGSLRLSCAASGFTFSNYNMNWVRQAPGKGLEWVSSISSAGTHIYYADSVKGRFTISRDNAKNSLYLQMNSLRAEDTAVYYCARDPHSTGWYKDFDYWGQGTLVTVSSGGGGSGGGGSGGGGSGGGGSGGGGSGGGGSEVQLVESGGGLVQPGRSLRLSCAASGFTFDDYALHWVRQAPGKDLEWVSGISWNGGSYGYADSVKGRFTISRDNAKNSLYLQMNSLRAEDTALYYCVREKGPGLTGSTADYYGLDAWGQGTMVTVSSAAAHHHHHH
notes: as for B1
B3: TPP-1023: CD137A -6GS-HSA3-6GS-PDA-His (bispecific antibody)
chain: EVQLVESGGGLVQPGGSLRLSCAASGFTLSNYWMNWVRQAPGKGLEWVANINQDGSERYYVDSVKGRFTISRDNAKNSLYLQMNSLRAEDTAVYYCARGGEGYGVDHYGLDVSGQGTTVTVSSGGGGSGGGGSGGGGSGGGGSGGGGSGGGGSEVQLLESGGGLVKPGGSLRLSCAASGFTVSSYTMNWVRQAPGKGLEWVSSISSSGRYIYYADSVKGRFTISRDNAKNSLYLQMNSLRAEDTAVYYCARDPRMVGNPHEFDIWGQGTMVTVSSGGGGSGGGGSGGGGSGGGGSGGGGSGGGGSEVQLVESGGGLVQPGRSLRLSCAASGFTFDDYALHWVRQAPGKDLEWVSGISWNGGSYGYADSVKGRFTISRDNAKNSLYLQMNSLRAEDTALYYCVREKGPGLTGSTADYYGLDAWGQGTMVTVSSAAAHHHHHH
notes: as for B1
B4: TPP-972: CD137A-6GS-PDA-6GS-HSA2-His (bispecific antibody)
chain: EVQLVESGGGLVQPGGSLRLSCAASGFTLSNYWMNWVRQAPGKGLEWVANINQDGSERYYVDSVKGRFTISRDNAKNSLYLQMNSLRAEDTAVYYCARGGEGYGVDHYGLDVSGQGTTVTVSSGGGGSGGGGSGGGGSGGGGSGGGGSGGGGSEVQLVESGGGLVQPGRSLRLSCAASGFTFDDYALHWVRQAPGKDLEWVSGISWNGGSYGYADSVKGRFTISRDNAKNSLYLQMNSLRAEDTALYYCVREKGPGLTGSTADYYGLDAWGQGTMVTVSSGGGGSGGGGSGGGGSGGGGSGGGGSGGGGSEVQLVESGGGLVKPGGSLRLSCAASGFTFSNYNMNWVRQAPGKGLEWVSSISSAGTHIYYADSVKGRFTISRDNAKNSLYLQMNSLRAEDTAVYYCARDPHSTGWYKDFDYWGQGTLVTVSSAAAHHHHHH
B5: TPP-1010: PD138G7(G109D)-6GS-HSA2-6GS-CD137D-His (bispecific antibody)
chain: EVQLVESGGGVVRPGGSLRLSCAASGFTFDDYAMSWVRQAPGKGLEWVSGITWNGGSTGYADSVKDRFTISRDNAKNSLYLQMNSLRAEDTALYYCVRDKYSYAWSYDDFDIWGQGTMVTVSSGGGGSGGGGSGGGGSGGGGSGGGGSGGGGSEVQLVESGGGLVKPGGSLRLSCAASGFTFSNYNMNWVRQAPGKGLEWVSSISSAGTHIYYADSVKGRFTISRDNAKNSLYLQMNSLRAEDTAVYYCARDPHSTGWYKDFDYWGQGTLVTVSSGGGGSGGGGSGGGGSGGGGSGGGGSGGGGSEVQLVESGGGVVQPGGSLRLSCAASGFTFSNYGMHWVRQAPGKGLEWVAVISNDGNTKTYADSVKGRFTISRDNSKNTLYLQMNSLRAEDTAVYYCAQDETTTVTASYYFDYWGQGTLVTVSSAAAHHHHHH
B6: TPP-973: CD137A-6GS-PDA2-6GS-HSA2-His (bispecific antibody)
chain: EVQLVESGGGLVQPGGSLRLSCAASGFTLSNYWMNWVRQAPGKGLEWVANINQDGSERYYVDSVKGRFTISRDNAKNSLYLQMNSLRAEDTAVYYCARGGEGYGVDHYGLDVSGQGTTVTVSSGGGGSGGGGSGGGGSGGGGSGGGGSGGGGSEVQLVESGGGVVRPGGSLRLSCAASGFTFDDYAMSWVRQAPGKGLEWVSGITWNAGSTGYADSVKGRFTISRDNAKNSLYLQMNSLRAEDTALYYCVRDKYSYAWSYDDFDIWGQGTMVTVSSGGGGSGGGGSGGGGSGGGGSGGGGSGGGGSEVQLVESGGGLVKPGGSLRLSCAASGFTFSNYNMNWVRQAPGKGLEWVSSISSAGTHIYYADSVKGRFTISRDNAKNSLYLQMNSLRAEDTAVYYCARDPHSTGWYKDFDYWGQGTLVTVSSAAAHHHHHH
B7: TPP-969: PDA-6GS-HSA2-6GS-172E1-13-His (bispecific antibody)
chain: EVQLVESGGGLVQPGRSLRLSCAASGFTFDDYALHWVRQAPGKDLEWVSGISWNGGSYGYADSVKGRFTISRDNAKNSLYLQMNSLRAEDTALYYCVREKGPGLTGSTADYYGLDAWGQGTMVTVSSGGGGSGGGGSGGGGSGGGGSGGGGSGGGGSEVQLVESGGGLVKPGGSLRLSCAASGFTFSNYNMNWVRQAPGKGLEWVSSISSAGTHIYYADSVKGRFTISRDNAKNSLYLQMNSLRAEDTAVYYCARDPHSTGWYKDFDYWGQGTLVTVSSGGGGSGGGGSGGGGSGGGGSGGGGSGGGGSEVQLVESGGGVVQPGGSLRLSCAASGFTFSNYGMHWVRQAPGKGLEWVAVISNDGNTKTYADSVKGRFTISRDNSKNTLYLQMNSLRAEDTAVYYCAQDETTTVTASYYFDYWGQGTLVTVSSAAAHHHHHH

The target in the first assay is T1, human CD137 expressed on CHO cells (human, UniProt Q07011 18-255).
T1 construct: also called CHO huCD137; CHO human CD137 cells
Nature of the assay: FMAT/Mirrorball on CHO huCD137 cells. How it is done:
(§1) Binding of His-tagged molecules to CHO human CD137, CHO parent and CHO human PD1 cells was assessed using Fluorescence Microvolume Assay Technology (FMAT). All reagents were prepared in FMAT assay buffer (pH 7.4) containing PBS, 0.1% Bovine Serum Albumin, 0.05% Sodium Azide. […] Fluorescence emission was then measured on the TTP Mirrorball plate reader in the FL2 (502 nm-537 nm) and FL5 (677-800 nm) channels following excitation at 488 nm and 640 nm. Data was gated on FL5 perimeter and peak intensity and the FL2 median mean fluorescence intensity of the gated data used for determination of VH binding. Monovalent CD137 specific Humabody® VH, and trispecific molecules with a CD137 binding arm bound to CHO CD137 expressing cells. Trispecific Humabody® VH, with a PD1 binding arm bound to PD1 expressing cells.
The term EC50 denotes the concentration giving half of the maximal effect. Higher therefore signals a less potent agent. B1 yielded an EC50 of 0.382 nM.

B2: the concentration giving a half-maximal response (EC50) was 0.314 nM.

The molecule B3 showed a concentration giving a half-maximal response (EC50) of 0.145 nM.

For another assay, the target named is human CD137 expressed on cells (Jurkat human CD137 NF-kB luciferase reporter cells; human CD8+ T cells) (human, UniProt Q07011 24-255). The assay is described as follows: cell-based or functional assay.
As to B4, the “Jurkat-CD137/CHO-PD-1 Reporter Assay EC50” value stood at 0.321 nM.

As to B5, the “Jurkat-CD137/CHO-PD-1 Reporter Assay EC50” value was determined as 2.29 nM.

With B6, the “Jurkat-CD137/CHO-PD-1 Reporter Assay EC50” value was determined as 0.254 nM.

Consider B7, for which the “Jurkat-CD137/CHO-PD-1 Reporter Assay EC50” value was 11.1 nM.

For another assay, the target named is T2, human PD-1 expressed on CHO cells (human, UniProt Q15116 21-288).
T2 construct: also called CHO huPD1; CHO human PD1 cells
Nature of the assay: FMAT/Mirrorball on CHO huPD1 cells. The method, then:
as §1
The molecule B1 registered an EC50 of 0.541 nM.

For the molecule B2, the EC50 turned out to be 0.264 nM.

B3: a half-maximal response (EC50) required 0.626 nM. This EC50 lies about 2.4-fold higher than the previous one.

For a further assay, the target named is T3, biotinylated human CD137-His (human, UniProt Q07011 24-186, biotinylated).
T3 construct: not shown: His tag
Nature of the assay: SPR, Biacore 8K, multi-cycle kinetics; biotinylated antigen captured on streptavidin chip; 1:1 model. How it is done: (§2) Multi cycle kinetics assays were then used to evaluate the kinetics and affinity of the interaction. Experiments were performed at […] in HBS-EP+ assay buffer with a flow rate of 30 μl/minute. A streptavidin chip (Streptavidin (SA), Series S, GE Healthcare BR100531) was used to capture the biotinylated human CD137 or human PD-1 reaching a maximum of 75RU or 200RU respectively. A second flow cell without any captured antigen was used as the reference cell. […] The binding kinetics were followed by flowing these over the chip surface. The contact time for the binding steps was 360 or 180 seconds and the dissociation step was 3600 or 1200 seconds for human CD137 and PD1 respectively. After each run, the sensors were regenerated with glycine pH 1.5 to remove the captured Humabody® VH. The data was fitted to a 1:1 binding model after reference subtraction using the Biacore Evaluation software. Example kinetic and binding affinity data obtained is shown Table 19.
For orientation: Kd means the concentration at which binding is half-saturated. As a reminder, the koff is the rate constant with which the complex falls apart. By kon is commonly meant a measure of how fast the partners come together. Read a low kon as slow association. B4 showed a Kd of 0.01 nM, a koff of 1.55e-05 s⁻¹ and an on-rate constant (kon) of 1.54e+06 M⁻¹ s⁻¹.

As for B5, the equilibrium dissociation constant (Kd) was 21.1 nM, the koff was 0.00366 s⁻¹ and the association rate constant (kon) was 173000 M⁻¹ s⁻¹.

In turn, B6 yielded a Kd of 0.108 nM, a dissociation rate constant (koff) of 2.57e-05 s⁻¹ and a kon of 237000 M⁻¹ s⁻¹.

Consider B7, for which the affinity, expressed as Kd, was 20.9 nM; the koff was determined as 0.00255 s⁻¹; the on-rate constant (kon) was determined as 122000 M⁻¹ s⁻¹.

For the next assay, the target named is T4, biotinylated human PD-1-His tagged protein (human, UniProt Q15116 25-170, biotinylated).
T4 construct: not shown: His tag
The assay is described as above. The method, then:
as §2
For B4, the Kd worked out at 11.8 nM, the off-rate constant (koff) worked out at 0.000761 s⁻¹ and the kon turned out to be 64300 M⁻¹ s⁻¹.

The molecule B5 had a dissociation constant Kd of 5.5 nM, a koff of 0.00274 s⁻¹ and a kon of 498000 M⁻¹ s⁻¹.

B6 yielded a Kd of 71.6 nM, a koff of 0.014 s⁻¹ and a kon of 195000 M⁻¹ s⁻¹.

In turn, B7 returned a dissociation constant (Kd) of 13.4 nM, a dissociation rate constant (koff) of 0.000915 s⁻¹ and an on-rate (kon) of 68500 M⁻¹ s⁻¹.
